One may read the Kd as the equilibrium constant for the complex coming apart. Broadly, the koff is the first-order rate constant of dissociation. A word on the kon: it is the second-order rate constant of association. Low values mean slower complex formation, high ones faster complex formation.

We go through 8 molecules from US20150266925A1 (COMPLIX, published 2015).

For test [1], the target named is T1, human IL-23 (human, UniProt Q9NPF7 20-189; P29460 23-328).
T1 construct: Bought recombinant heterodimeric cytokine (eBioscience 34-8239-85 for panning; R&D Systems for the splenocyte assay); also called hIL-23; hIL23
T1 sequence (looked up) 1: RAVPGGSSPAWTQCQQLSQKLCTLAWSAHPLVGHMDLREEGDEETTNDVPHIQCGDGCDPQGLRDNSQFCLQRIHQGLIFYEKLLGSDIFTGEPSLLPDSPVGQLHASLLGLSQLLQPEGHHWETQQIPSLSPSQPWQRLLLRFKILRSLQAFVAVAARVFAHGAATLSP
T1 sequence (looked up) 2: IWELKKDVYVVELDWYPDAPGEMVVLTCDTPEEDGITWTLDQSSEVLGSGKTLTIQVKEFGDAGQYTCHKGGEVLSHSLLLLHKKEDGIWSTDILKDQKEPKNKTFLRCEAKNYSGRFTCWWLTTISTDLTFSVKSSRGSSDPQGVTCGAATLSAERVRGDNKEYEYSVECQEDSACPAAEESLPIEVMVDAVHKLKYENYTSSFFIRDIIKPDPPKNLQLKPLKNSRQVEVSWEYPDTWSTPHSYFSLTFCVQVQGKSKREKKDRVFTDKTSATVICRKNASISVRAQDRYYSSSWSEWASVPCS
The test can be described thus: kinetic ELISA, soluble polypeptide. On the technique in general: In an ELISA, binding on a coated surface is turned into a signal by an enzyme label.

In test [2] the target is T1, human IL-23. The experiment in a line: equilibrium ELISA, soluble polypeptide.
Test [3] concerns the target T1, human IL-23. The experiment in a line: phage-coated ELISA, clone displayed on phage.
In test [4] the target is T1, human IL-23. The experiment in a line: cell-based or functional assay.

B1: MB43 (designed binder)
chain: MSIEEIQKEIKNIQEVIAAIQKYIYTMTGGSGGSGGMSIEEIQKQIAAIQCQIAAIQKQIYAMTGSGGGGSGGSGGGGSGMSIEEIPKQIAAIQDQIIAIYKQIMAMTR
In the case of B1, in the test with human IL-23 [1], the Kd came to 110 pM, the koff was 0.00014 s⁻¹ and the kon was found to be 1.3e+06 M⁻¹ s⁻¹. Besides, in the test with human IL-23 [2], binding was put at a Kd of 200 pM. This molecule also displayed a Kd with human IL-23 [3] of 180 pM.

B2: MB67 (designed binder)
chain: MSIQKIQKEITNIQEVIAAIQKYIYTMTGGSGGSGGMSIEEIQKQIAAIQCQIAAIQKQIYAMTGSGGGGSGGSGGGGSGMSIEEIQKQIAAIQRQILAIYKQIMAMST
Regarding B2, in the test with human IL-23 [1], the Kd turned out to be 140 pM, the koff is 0.00022 s⁻¹ and the kon is 1.6e+06 M⁻¹ s⁻¹. For the same molecule, the Kd with human IL-23 [2] was 250 pM. Also, in the test with human IL-23 [3], the Kd was 210 pM.

B3: 59m_C2eQ (designed binder)
single chain Alphabody: MSIQQIQKEIAQIQEVIAGIQKWIYMMTGGSGGSGGGGSGGSGGMSIEEIQKQIAAIQCQIAAIQKQIYAMTGSGGGGSGGSGGGGSGMSIEEIQKQITAIQEQIIAIYKQIMAMTP
notes: also called design variant; polypeptide 19
With B3, in the test with human IL-23 [4], the “functional KD (Spleno fKD), mouse splenocyte assay: IL-17 production induced by human IL-23; n data = 1” value (“functional KD (Spleno fKD)” for short) worked out at 1900 pM. In addition, in the test with human IL-23 [1], the Kd is 3900 pM, the koff was found to be 0.00043 s⁻¹ and the kon was 110000 M⁻¹ s⁻¹. Besides, in the test with human IL-23 [2], the dissociation constant (Kd) was 930 pM.

B4: 59m_A3cA_A4cS_C2eQ (designed binder)
single chain Alphabody: MSIQQIQKEIAQIQEVIAAIQKWIYSMTGGSGGSGGGGSGGSGGMSIEEIQKQIAAIQCQIAAIQKQIYAMTGSGGGGSGGSGGGGSGMSIEEIQKQITAIQEQIIAIYKQIMAMTP
notes: also called design variant; polypeptide 20
Regarding B4, the “functional KD (Spleno fKD)” value with human IL-23 [4] came to 700 pM. In the test with human IL-23 [1], the equilibrium dissociation constant (Kd) is 750 pM, the dissociation rate constant (koff) was 0.00026 s⁻¹ and the kon was 350000 M⁻¹ s⁻¹. Besides, the Kd with human IL-23 [2] was 390 pM.

B5: MB23 (designed binder)
chain: MSIEQIQKEITTIQEVIAAIQKYIYTMTGGSGGSGGMSIEEIQKQIAAIQCQIAAIQKQIYAMTGSGGGGSGMSIEEIQKQIAAIQEQIVAIYKQIMAMAS
notes: 3 for clone 59 (conflict); also called non-PEGylated MB23 Alphabody
Consider B5, for which the “functional KD (DB fKD), DB cell assay: Stat3 phosphorylation induced by human IL-23; n data = 2” value in the test with human IL-23 [4] turned out to be 160 pM. Moreover, in the test with human IL-23 [1], the equilibrium dissociation constant (Kd) turned out to be 150 pM, the koff was found to be 0.00021 s⁻¹ and the kon is 1.5e+06 M⁻¹ s⁻¹. In the test with human IL-23 [2], this molecule registered a Kd of 170 pM. This molecule also displayed a Kd with human IL-23 [3] of 70 pM.

B6: MA14 (designed binder)
chain: MSIEQIQTEIASIQEVIAGIQKYIYSMTGGSGGSGGMSIEEIQKQIAAIQCQIAAIQKQIYAMTGSGGGGSGMSIEEIQKQIAAIQNQIVAIYKQIMAMGG
B6: the “functional KD (Spleno fKD)” value with human IL-23 [4] was determined as 11000 pM. Moreover, the Kd with human IL-23 [1] was found to be 2500 pM; in the test with human IL-23 [2] it was 1800 pM; with human IL-23 [3], 1500 pM. In the test with human IL-23 [1], the off-rate (koff) was found to be 0.0005 s⁻¹. The molecule also returned a kon in the test with human IL-23 [1] of 200000 M⁻¹ s⁻¹.

B7: MA23 (designed binder)
chain: MSIQQIQKEIANIQEVIAAIQKWIYLMTGGSGGSGGMSIEEIQKQIAAIQCQIAAIQKQIYAMTGSGGGGSGMSIEEIQKQIAAIQEQIVAIYKQIMAMPS
In the case of B7, the “functional KD (Spleno fKD)” value with human IL-23 [4] was found to be 10000 pM. Moreover, the Kd with human IL-23 [1] came out at 700 pM; with human IL-23 [2] it was 290 pM; in the test with human IL-23 [3], 700 pM. Besides, in the test with human IL-23 [1], the koff worked out at 0.00032 s⁻¹. The molecule also returned a kon with human IL-23 [1] of 450000 M⁻¹ s⁻¹.

B8: MAcons (designed binder)
single chain Alphabody: MSIQQIQKEIAQIQEVIAAIQKWIYSMTGGSGGSGGGGSGGSGGMSIEEIQKQIAAIQCQIAAIQKQIYAMTGSGGGGSGMSIEEIQKQIAAIQDQIVAIYKQIMAMSG
notes: also called polypeptide 15
Consider B8, for which the “functional KD (Spleno fKD)” value in the test with human IL-23 [4] came to 4100 pM. For the same molecule, in the test with human IL-23 [1], the Kd is 130 pM, the koff was found to be 0.00032 s⁻¹ and the kon is 2.5e+06 M⁻¹ s⁻¹. The same molecule showed a Kd in the test with human IL-23 [2] of 230 pM.
